Bridges are numbered along the chain shown (N, C = ends). Where no end group is shown, it is not given here.
Key:
Bcl-2 [1] = target: T1, Bcl-2 (UniProt P10415 1-239); test: SPR
Bcl-2 [2] = target: T1, Bcl-2; test: FP
MDM2 = MDM2 (UniProt Q00987 1-491); test: FP; reduced
Chain of MDM2 (Q00987 whole entry): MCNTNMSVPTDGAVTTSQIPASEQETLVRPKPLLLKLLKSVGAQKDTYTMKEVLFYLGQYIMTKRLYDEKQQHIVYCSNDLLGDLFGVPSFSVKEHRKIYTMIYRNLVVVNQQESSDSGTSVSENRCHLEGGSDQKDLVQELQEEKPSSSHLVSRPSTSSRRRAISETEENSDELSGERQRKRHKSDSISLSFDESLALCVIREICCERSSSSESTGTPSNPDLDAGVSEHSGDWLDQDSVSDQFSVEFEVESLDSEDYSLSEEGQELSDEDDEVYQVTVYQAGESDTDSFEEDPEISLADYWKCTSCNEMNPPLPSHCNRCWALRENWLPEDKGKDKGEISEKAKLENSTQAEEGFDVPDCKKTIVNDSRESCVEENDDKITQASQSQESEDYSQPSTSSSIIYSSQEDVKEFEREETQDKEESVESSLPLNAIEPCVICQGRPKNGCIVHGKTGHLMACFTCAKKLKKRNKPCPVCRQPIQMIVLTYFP

T1 sequence (P10415 whole entry): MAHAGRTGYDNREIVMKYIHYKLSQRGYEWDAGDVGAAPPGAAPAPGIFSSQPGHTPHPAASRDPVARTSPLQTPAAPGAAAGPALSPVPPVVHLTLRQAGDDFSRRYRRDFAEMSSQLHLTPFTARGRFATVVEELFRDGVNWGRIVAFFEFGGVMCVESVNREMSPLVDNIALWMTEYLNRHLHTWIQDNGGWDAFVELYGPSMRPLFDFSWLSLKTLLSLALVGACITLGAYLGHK

Binder	koff (Bcl-2 [1])	Ki (Bcl-2 [2])	Ki (MDM2)
GCMILLDTDIWCPCSHPYACPENICC (disulfide 12-26 (inferred); disulfide 14-20, 2-25) [oxidized peptide 16]	0.0498 s⁻¹	770 nM	–
GCEKATESESPCPCIFPELCPWIVCC (cysteines reduced (no disulfide bonds)) [reduced linear peptide 15]	–	–	1120 nM
